B1: Azoarcus group I ribozyme (parent)
chain: GUGCCUUGCGCCGGGAAACCACGCAAGGGAUGGUGUCAAAUUCGGCGAAACCUAAGCGCCCGCCCGGGCGUAUGGCAACGCCGAGCCAAGCUUCGGCGCCUGCGCCGAUGAAGGUGUAGAGACUAGACGGCACCCACCUAAGGCAAACGCUAUGGUGAAGGCAUAGUCCAGGGAGUGGCGAAAGUCACACAAACCGG

Variants of: B1
Assay: reverse-splicing fitness (ratio to wild type); higher = more active; in vitro selection; Mg2+ level not given
Outline: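 An in vitro group I ribozyme library with randomized positions was T7-transcribed and gel-purified. In triplicate, 10 pmol RNA in EPPS pH 7.5 was reacted with 50 pmoles of a 30-nt RNA substrate for 1 h at 37 °C across several added MgCl2 levels (1–48 mM), then stopped with EDTA. Products were reverse transcribed from a substrate-complementary primer, PCR-amplified and sequenced (HiSeq 4000). Fitness is a variant's read proportion after selection over that before, normalised to wild type.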

Compared with C82A A111U A120G C169A U176G, C82A A111U A120G C169G is higher in reverse-splicing fitness: 0.00506 for the first, 0.0106 for the second.

Going from C82A A111U A120G C169G U176A to C82A A111U A120G C169G U176C, the reverse-splicing fitness rises from 0.0219 to 0.0234.

Going from C82A A111U A120G C169G U176G to C82A A111U A120G C169U, the reverse-splicing fitness rises from 0.00439 to 0.00987.

First: C82A A111U A120G C169U U176A
Second: C82A A111U A120G C169U U176C
The reverse-splicing fitness of the first is higher: 0.0201 for the first, 0.0195 for the second.

Going from C82A A111U A120G C169U U176G to C82A A111U A120G U176A, the reverse-splicing fitness rises from 0.00615 to 0.0127.

First: C82A A111U A120G U176C
Second: C82A A111U A120G U176G
The reverse-splicing fitness of the first is higher: 0.0189 for the first, 0.00705 for the second.

First: C82A A111U A120U
Second: C82A A111U A120U A145C
The reverse-splicing fitness of the first is higher: 0.0228 for the first, 0.0205 for the second.

First: C82A A111U A120U A145C C150A
Second: C82A A111U A120U A145C C150A C169A
The reverse-splicing fitness of the first is higher: 0.00524 for the first, 0.00277 for the second.

First: C82A A111U A120U A145C C150A C169A U176A
Second: C82A A111U A120U A145C C150A C169A U176C
The reverse-splicing fitness of the first is lower: 0.00272 for the first, 0.00299 for the second.

First: C82A A111U A120U A145C C150A C169A U176G
Second: C82A A111U A120U A145C C150A C169G
The reverse-splicing fitness of the first is higher: 0.00263 for the first, 0.00256 for the second.

C82A A111U A120U A145C C150A C169G U176A and C82A A111U A120U A145C C150A C169G U176C are the same in reverse-splicing fitness: 0.00303 for the first, 0.00303 for the second.

First: C82A A111U A120U A145C C150A C169G U176G
Second: C82A A111U A120U A145C C150A C169U
The reverse-splicing fitness of the first is lower: 0.0026 for the first, 0.00267 for the second.

Compared with C82A A111U A120U A145C C150A C169U U176A, C82A A111U A120U A145C C150A C169U U176C is higher in reverse-splicing fitness: 0.00277 for the first, 0.00287 for the second.

First: C82A A111U A120U A145C C150A C169U U176G
Second: C82A A111U A120U A145C C150A U176A
The reverse-splicing fitness of the first is lower: 0.00186 for the first, 0.00368 for the second.

Going from C82A A111U A120U A145C C150A U176C to C82A A111U A120U A145C C150A U176G, the reverse-splicing fitness falls from 0.00426 to 0.00255.

Compared with C82A A111U A120U A145C C150G, C82A A111U A120U A145C C150G C169A is lower in reverse-splicing fitness: 0.0059 for the first, 0.00347 for the second.

Going from C82A A111U A120U A145C C150G C169A U176A to C82A A111U A120U A145C C150G C169A U176C, the reverse-splicing fitness falls from 0.00316 to 0.00302.

Compared with C82A A111U A120U A145C C150G C169A U176G, C82A A111U A120U A145C C150G C169G is higher in reverse-splicing fitness: 0.00234 for the first, 0.0039 for the second.

Going from C82A A111U A120U A145C C150G C169G U176A to C82A A111U A120U A145C C150G C169G U176C, the reverse-splicing fitness falls from 0.00351 to 0.0024.

First: C82A A111U A120U A145C C150G C169G U176G
Second: C82A A111U A120U A145C C150G C169U
The reverse-splicing fitness of the first is lower: 0.00242 for the first, 0.00392 for the second.

Going from C82A A111U A120U A145C C150G C169U U176A to C82A A111U A120U A145C C150G C169U U176C, the reverse-splicing fitness falls from 0.00314 to 0.00285.

First: C82A A111U A120U A145C C150G C169U U176G
Second: C82A A111U A120U A145C C150G U176A
The reverse-splicing fitness of the first is lower: 0.00301 for the first, 0.00326 for the second.

First: C82A A111U A120U A145C C150G U176C
Second: C82A A111U A120U A145C C150G U176G
The reverse-splicing fitness of the first is higher: 0.00415 for the first, 0.00265 for the second.

Going from C82A A111U A120U A145C C150U to C82A A111U A120U A145C C150U C169A, the reverse-splicing fitness falls from 0.00779 to 0.00277.

First: C82A A111U A120U A145C C150U C169A U176A
Second: C82A A111U A120U A145C C150U C169A U176C
The reverse-splicing fitness of the first is higher: 0.00281 for the first, 0.00232 for the second.

First: C82A A111U A120U A145C C150U C169A U176G
Second: C82A A111U A120U A145C C150U C169G
The reverse-splicing fitness of the first is lower: 0.00224 for the first, 0.0029 for the second.

Going from C82A A111U A120U A145C C150U C169G U176A to C82A A111U A120U A145C C150U C169G U176C, the reverse-splicing fitness falls from 0.00366 to 0.00274.

Going from C82A A111U A120U A145C C150U C169G U176G to C82A A111U A120U A145C C150U C169U, the reverse-splicing fitness rises from 0.00248 to 0.00328.

Compared with C82A A111U A120U A145C C150U C169U U176A, C82A A111U A120U A145C C150U C169U U176C is lower in reverse-splicing fitness: 0.00291 for the first, 0.00282 for the second.

Going from C82A A111U A120U A145C C150U C169U U176G to C82A A111U A120U A145C C150U U176A, the reverse-splicing fitness rises from 0.00236 to 0.00482.

Going from C82A A111U A120U A145C C150U U176C to C82A A111U A120U A145C C150U U176G, the reverse-splicing fitness falls from 0.00533 to 0.00319.

First: C82A A111U A120U A145C C169A
Second: C82A A111U A120U A145C C169A U176A
The reverse-splicing fitness of the first is lower: 0.00224 for the first, 0.00304 for the second.

Compared with C82A A111U A120U A145C C169A U176C, C82A A111U A120U A145C C169A U176G is lower in reverse-splicing fitness: 0.00227 for the first, 0.00209 for the second.

First: C82A A111U A120U A145C C169G
Second: C82A A111U A120U A145C C169G U176A
The reverse-splicing fitness of the first is higher: 0.00342 for the first, 0.00281 for the second.

Going from C82A A111U A120U A145C C169G U176C to C82A A111U A120U A145C C169G U176G, the reverse-splicing fitness falls from 0.00232 to 0.00198.

Going from C82A A111U A120U A145C C169U to C82A A111U A120U A145C C169U U176A, the reverse-splicing fitness falls from 0.00338 to 0.00334.

Compared with C82A A111U A120U A145C C169U U176C, C82A A111U A120U A145C C169U U176G is lower in reverse-splicing fitness: 0.0036 for the first, 0.00193 for the second.

First: C82A A111U A120U A145C U176A
Second: C82A A111U A120U A145C U176C
The reverse-splicing fitness of the first is lower: 0.00613 for the first, 0.00758 for the second.

Compared with C82A A111U A120U A145C U176G, C82A A111U A120U A145G is higher in reverse-splicing fitness: 0.00274 for the first, 0.0209 for the second.

Compared with C82A A111U A120U A145G C150A, C82A A111U A120U A145G C150A C169A is lower in reverse-splicing fitness: 0.00899 for the first, 0.00807 for the second.

First: C82A A111U A120U A145G C150A C169A U176A
Second: C82A A111U A120U A145G C150A C169A U176C
The reverse-splicing fitness of the first is higher: 0.0108 for the first, 0.00627 for the second.

Variant C82A A111U A120U A145G C150A C169A U176G has a reverse-splicing fitness of 0.00392.
